# Laboratory results reported in publication PMC8064498.
# Assays:
# [1] = molecular target: SARS-CoV-2 prefusion-stabilized spike protein ectodomain (aa 16-1208), expressed in Drosophila S2 cells (SARS-CoV-2) (UniProt P0DTC2); assay: SEC
# [2] = molecular target: SARS-CoV-2 S ectodomain (residues 1-1214) with prefusion stabilizing 986P, 987P variants, C-terminal (SARS-CoV-2) (UniProt P0DTC2); assay: SEC
Substance,stoichiometry N [1],stoichiometry N [2]
"SARS-CoV-2 prefusion-stabilized spike protein ectodomain (aa 16-1208), expressed in Drosophila S2 cells (from UniProt P0DTC2 16-1208) (domain or fragment)",2,–
"SARS-CoV-2 S ectodomain (residues 1-1214) with prefusion stabilizing 986P, 987P variants, C-terminal (from UniProt P0DTC2 14-1214) (domain or fragment)",–,3
